The results in this text go back to PMC12623983.

This assay deals with ribosomes from HEK293 cells (80S ribosomes, empty ribosomes), P62750;P62906. The experiment in a line: co-sedimentation assay with immunoblot quantification. The following applies: chain shown with the change, three independent replicates, read off a plot; for ratio to parent: NMT2 alone with ribosomes (no NAC), parent: est. 1.0; for response (normalized intensity): NMT2 with ribosomes in the presence of NAC, parent: est. 2.2. In general terms: Immunoblotting shows a protein as a band on a membrane.

Residue numbers refer to the chain shown, from its start. In names and notes the source's numbering stands.

B1: human NMT2 (N-myristoyltransferase 2), wild type, O60551 R306E; R324E; K327E (protein)
chain: MAEDSESAASQQSLELDDQDTCGIDGDNEEETEHAKGSPGGYLGAKKKKKKQKRKKEKPNSGGTKSDSASDSQEIKIQQPSKNPSVPMQKLQDIQRAMELLSACQGPARNIDEAAKHRYQFWDTQPVPKLDEVITSHGAIEPDKDNVRQEPYSLPQGFMWDTLDLSDAEVLKELYTLLNENYVEDDDNMFRFDYSPEFLLWALRPPGWLLQWHCGVRVSSNKKLVGFISAIPANIRIYDSVKKMVEINFLCVHKKLRSKRVAPVLIREITRRVNLEGIFQAVYTAGVVLPKPIATCRYWHRSLNPEKLVEVKFSHLSRNMTLQETMELYRLPDVTKTSGLRPMEPKDIKSVRELINTYLKQFHLAPVMDEEEVAHWFLPREHIIDTFVVESPNGKLTDFLSFYTLPSTVMHHPAHKSLKAAYSFYNIHTETPLLDLMSDALILAKSKGFDVFNALDLMENKTFLEKLKFGIGDGNLQYYLYNWRCPGTDSEKVGLVLQ
Consider B1, for which the ratio to parent worked out at 0.27 and the response (normalized intensity) is 0.3.

B2: human NMT2 (N-myristoyltransferase 2), wild type, O60551 R324E; K327E (protein)
chain: B1 chain with E306R
On to B2, for which the ratio to parent is 0.32 and the response (normalized intensity) was determined as 0.45.

B3: human NMT2 (N-myristoyltransferase 2), wild type, O60551 R306E (protein)
chain: B1 chain with E324R, E327K
For the molecule B3, the ratio to parent was determined as 0.35 and the response (normalized intensity) was found to be 0.85.
